Test results published in patent publication US20250223366A1, “MONOCLONAL ANTIBODIES AND BISPECIFIC ANTIBODY AGAINST C-MET” (BIOTHEUS INC., priority 2022, published 2025).
Numbering of substitutions follows the chain as printed. Values belong to the molecule of their own block, whether it stands above or below them.

Key:
A375/H1975/HCC827 cells = assay: ADCC induction, CD16a-NFAT-Luc Jurkat reporter gene cells; assay type: cell-based, human; conditions: A375, H1975, HCC827 target cells, CD16a-NFAT-Luc Jurkat effector cells, 6 h, FIG. 9
Text: A375 cells were human malignant melanoma cells and purchased from Addexbio, which were capable of expressing EGFR and c-Met receptors. H1975 cells were human lung adenocarcinoma cells and purchased from Addexbio, which were capable of highly expressing EGFR and c-Met receptors. HCC827 cells were human non-small cell lung cancer cells and purchased from the Cell Bank of the Chinese Academy of Sciences, which were capable of highly expressing EGFR and c-Met receptors. […]

[1] = test system: H292 human lung cancer tumor cells; assay: Experimental Model 1: H292 tumor-bearing model; assay type: in vivo, CB-17 SCID mice; conditions: H292, Day 7: 10 mg/kg; Day 21: 2 mg/kg; last measured 29 days after inoculation
Description: In this experiment, CB-17 SCID mice were subcutaneously inoculated with H292 human lung cancer tumor cells to establish a tumor-bearing model and determine the anti-tumor effect of the anti-EGFRxc-Met bispecific antibody. Sufficient H292 cells were cultured and expanded in vitro, and the cells were collected after trypsin digestion. After washing with PBS for 3 times, the cells were counted and inoculated subcutaneously at the right abdomen of female 8-week-old CB-17 SCID mice (purchased from Beijing Weitong Lihua) at an amount of 3×10^6 cells/mouse. The subcutaneous tumor formation of tumor cells in the mice was observed daily, and the maximum width axis W and the maximum length axis L of the subcutaneous tumor on the right abdomen of each animal were measured with a vernier caliper, and the weight of each mouse was weighed with an electronic balance. The subcutaneous tumor volume on the right abdomen of each mouse was calculated according to the following formula: tumor volume T=1/2×W×W×L. The mice with too large and too small tumor volumes were eliminated, and the remained mice were divided into 4 groups according to the average tumor volume, with 6 mice in each group. […]
The tumor volume and weight of mice were measured 2 to 3 times a week. The weight and tumor volume of mice were measured for the last time 29 days after the tumor cell inoculation, and then the mice were euthanized.

monkey c-MET protein = assay: ForteBio affinity assay, monkey c-Met; assay type: binding
Description: (§1) After the antibodies were prepared, the ForteBio affinity assay was performed according to the reported method (Estep, P et al., Determination of antibody-antigen affinity and epitope binding based on high-throughput methods. MAbs, 2013.5(2): p. 270-8).

[2] = test system: HGF-c-MET signaling pathway; assay: Blocking of HGF-c-MET signaling pathway in Gefitinib-treated HCC827 cells (single antibody concentration); assay type: cell-based, human; conditions: 3 days, Cell titer glo, FIG. 2
Description: HCC827 cells were human non-small cell lung cancer cells (purchased from the Cell Bank of the Chinese Academy of Sciences), which highly express epidermal growth factor receptor EGFR (exon 19 deletion) and c-Met receptor. The treatment with small molecule tyrosine kinase inhibitor (TKI) Gefitinib (gefitinib, an epidermal growth factor receptor tyrosine kinase inhibitor) would induce apoptosis in HCC827 cells. If HGF was added at the same time under such conditions, the c-Met pathway would be activated to induce HCC827 to produce resistance to Gefitinib, thereby inhibiting apoptosis.
The cell density of the HCC827 cells after the expanded culture was adjusted to 2×10^4 cells/ml, added to a 96-well cell culture plate at 100 μl/well, and cultured overnight for later use. The antibody to be tested was diluted to 1000 nM with 1640 medium, HGF was diluted to 800 ng/mL, and Gefitinib was diluted to 8 μM. According to the experimental requirements, the diluted antibody at 50 μl/well, HGF at 25 μl/well, and Gefitinib at 25 μl/well were added to the 96-well plate with HCC827 cells, and supplemented with 1640 medium to reach a total volume of 200 μl/well. After culturing for 3 days at 37° C. and 5% carbon dioxide, 100 μl of the medium was removed, and then Cell titer glo (purchased from Promega) was added at 100 μl/well, and the chemiluminescent signal was collected with an microplate reader.

human c-MET protein = human c-MET protein (Homo sapiens, UniProt P08581); assay: ForteBio affinity assay, human c-Met; assay type: binding
Description: as §1

human c-MET protein, sequence (P08581 25-1390): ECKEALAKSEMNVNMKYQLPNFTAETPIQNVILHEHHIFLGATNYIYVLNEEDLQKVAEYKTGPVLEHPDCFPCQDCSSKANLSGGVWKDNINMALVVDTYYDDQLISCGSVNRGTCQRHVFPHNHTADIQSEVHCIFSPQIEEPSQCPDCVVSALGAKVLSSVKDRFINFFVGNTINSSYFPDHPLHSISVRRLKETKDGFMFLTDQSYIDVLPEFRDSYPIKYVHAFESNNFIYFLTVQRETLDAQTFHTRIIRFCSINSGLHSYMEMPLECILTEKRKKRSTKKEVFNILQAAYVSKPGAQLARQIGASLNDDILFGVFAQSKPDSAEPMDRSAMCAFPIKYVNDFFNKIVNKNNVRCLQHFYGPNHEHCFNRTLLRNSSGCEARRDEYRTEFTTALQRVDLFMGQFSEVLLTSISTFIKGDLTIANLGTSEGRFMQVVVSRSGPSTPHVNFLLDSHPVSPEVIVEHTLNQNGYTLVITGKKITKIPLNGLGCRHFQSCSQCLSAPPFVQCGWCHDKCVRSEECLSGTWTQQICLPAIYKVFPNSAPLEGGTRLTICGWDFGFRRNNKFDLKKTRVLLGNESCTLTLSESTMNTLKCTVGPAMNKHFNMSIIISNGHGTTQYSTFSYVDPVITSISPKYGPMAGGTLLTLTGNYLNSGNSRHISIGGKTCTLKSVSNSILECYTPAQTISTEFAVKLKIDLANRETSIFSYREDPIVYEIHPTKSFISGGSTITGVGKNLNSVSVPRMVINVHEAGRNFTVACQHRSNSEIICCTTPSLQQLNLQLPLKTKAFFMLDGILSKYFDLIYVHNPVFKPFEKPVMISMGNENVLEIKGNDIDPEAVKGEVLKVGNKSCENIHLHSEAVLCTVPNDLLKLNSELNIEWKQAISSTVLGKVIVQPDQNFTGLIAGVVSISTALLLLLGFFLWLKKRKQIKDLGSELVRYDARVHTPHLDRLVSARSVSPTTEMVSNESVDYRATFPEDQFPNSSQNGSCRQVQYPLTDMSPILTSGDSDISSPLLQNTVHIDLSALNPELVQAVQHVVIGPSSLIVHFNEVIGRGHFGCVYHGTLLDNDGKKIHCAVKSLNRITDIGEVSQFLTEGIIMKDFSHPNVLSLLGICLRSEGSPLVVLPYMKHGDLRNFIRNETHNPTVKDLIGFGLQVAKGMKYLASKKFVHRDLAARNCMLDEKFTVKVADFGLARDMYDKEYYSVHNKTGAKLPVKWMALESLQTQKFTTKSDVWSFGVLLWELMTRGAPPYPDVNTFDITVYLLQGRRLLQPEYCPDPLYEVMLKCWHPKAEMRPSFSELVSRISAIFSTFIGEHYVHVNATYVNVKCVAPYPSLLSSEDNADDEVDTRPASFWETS

B1: Amivantamab analog Afu: control bispecific antibody obtained from the afucosylation cell line with gene knockout (antibody, chains of the INN, looked up, V domains shown)
VH: QVQLVESGGGVVQPGRSLRLSCAASGFTFSTYGMHWVRQAPGKGLEWVAVIWDDGSYKYYGDSVKGRFTISRDNSKNTLYLQMNSLRAEDTAVYYCARDGITMVRGVMKDYFDYWGQGTLVTVSS
VL: AIQLTQSPSSLSASVGDRVTITCRASQDISSALVWYQQKPGKAPKLLIYDASSLESGVPSRFSGSESGTDFTLTISSLQPEDFATYYCQQFNSYPLTFGGGTKVEIK
VH2: QVQLVQSGAEVKKPGASVKVSCETSGYTFTSYGISWVRQAPGHGLEWMGWISAYNGYTNYAQKLQGRVTMTTDTSTSTAYMELRSLRSDDTAVYYCARDLRGTNYFDYWGQGTLVTVSS
VL2: DIQMTQSPSSVSASVGDRVTITCRASQGISNWLAWFQHKPGKAPKLLIYAASSLLSGVPSRFSGSGSGTDFTLTISSLQPEDFATYYCQQANSFPITFGQGTRLEIK
modifications: afucosylated
notes: control bispecific antibody obtained from the afucosylation cell line with gene knockout
ADCC effect (A375/H1975/HCC827 cells): stronger ADCC effect than the wild-type antibody containing fucose | tumor (volume) inhibition rate (TGI) [1]: 74.5%

Koff (human c-MET protein): 6.71e-06 s⁻¹ | Kon (human c-MET protein): 229000 M⁻¹ s⁻¹
B2: 136: anti-c-MET antibody from yeast display screening; VH SEQ ID NO: 9, VL SEQ ID NO: 11 (antibody, V domains shown)
VH: EVQLQESGPGLVKPSETLSLTCTVSGGSVTSVNYYWKWIRQPPGKGLEWIGYISYSGNTNYNPSLKSRVTISVDTSKNQFSLKLSSVTAADTAVYYCVRAPYYYMDVWSKGTTVTVSS
VL: DIVMTQSPSSVSASVGDRVTITCRASQGISSWLAWYQQKPGKAPKLLIYAVSSLQSGVPSRFSGSGSGTDFTLTISSLQPEDFATYFCQQANSFPLTFGGGTKVEIK
Koff (monkey c-MET protein): 0.000426 s⁻¹ | Kon (monkey c-MET protein): 369000 M⁻¹ s⁻¹ | restoring the proliferation inhibitory effect of Gefitinib on HCC827 cells by blocking HGF-c-MET signaling [2]: could restore the proliferation inhibitory effect of Gefitinib on HCC827 cells

Koff (human c-MET protein): 0.000369 s⁻¹ | Kon (human c-MET protein): 220000 M⁻¹ s⁻¹
B3: 187: anti-c-MET antibody from yeast display screening; VH SEQ ID NO: 13, VL SEQ ID NO: 15 (antibody, V domains shown)
VH: ELQLQESGPGLVKPSETLSLTCTVSGGSISSSSYYWGWIRQSPGKGLEWIGSRYYSGNTYYNPSLKSRVTMSVDTSKNQFSLKLRSVTAADTAVYYCARQVYDYWRDWGQGALVTVSS
VL: B2 VL with K45N, V51A, S53N, Q55P, D70V, F87Y, A91S
Koff (monkey c-MET protein): 0.000947 s⁻¹ | Kon (monkey c-MET protein): 324000 M⁻¹ s⁻¹ | restoring the proliferation inhibitory effect of Gefitinib on HCC827 cells by blocking HGF-c-MET signaling [2]: could restore the proliferation inhibitory effect of Gefitinib on HCC827 cells
